Data from patent US20160272937A1, “METHODS OF GENERATING INTERMEDIATE MESODERM CELLS FROM HUMAN PLURIPOTENT STEM CELLS” (THE BRIGHAM AND WOMEN'S HOSPITAL, INC., priority 2013, published 2016).

Legend:
CHIR-induced hPSCs = test: Growth factor screen for PAX2 induction in CHIR-induced mesendodermal cells (immunostaining); type: cell-based, human; conditions: day 4
Procedure: For immunofluorescence studies, cultures are washed once with PBS (Invitrogen) and fixed in 4% paraformaldehyde for 15 min at room temperature (RT). Fixed cells are then washed three times in PBS and incubated in blocking buffer (0.3% Triton X-100 (Fisher Scientific) and 5% normal donkey serum (EMD Millipore) in PBS) for 1 hour at RT.
The cells are then incubated with primary antibody overnight at 4° C. or for 2 hours at RT in antibody dilution buffer (0.3% Triton X-100 and 1% BSA (Roche) in PBS). Cells are then washed three times in PBS and incubated with Alexa Fluor 488-, 555-, or 647-conjugated secondary antibodies (1:500) (Molecular Probes) in antibody dilution buffer for 1 hour at RT. For immunostaining with Biotinylated Lotus Tetragonolobus Lectin (LTL, Vector Labs), a Streptavidin/Biotin Blocking Kit (Vector Labs) and Alexa Fluor 488- or 647-conjugated Streptavidin (Molecular Probes) were used according to manufacturer's instructions.
Nuclei can be counterstained with DAPI (Sigma). […] Immunofluorescence is visualized using an inverted fluorescence microscope (Nikon Eclipse Ti, Tokyo, Japan). Quantification is performed by counting a minimum of five random fields at 10× magnification.
PAX2 is selected since it is an early marker of IM, and, unlike the markers OSR1 or LHX1 which are also expressed in the adjacent lateral plate mesoderm, PAX2 expression is restricted in mesoderm to the IM.

[1] = tested on: hPSCs (hESC and hiPSC lines); test: Intermediate mesoderm differentiation: PAX2/LHX1 immunostaining; type: cell-based, human; conditions: BMP-7 added to FGF2 and RA after CHIR 36 hours, day 3
Procedure: Mesendoderm differentiation—the media is changed to Advanced RPMI (A-RPMI, Invitrogen) supplemented with 1×L-glutamax and 1× penicillin/streptomycin and either CHIR99021 (CHIR, Stemgent), human Wnt3a (R&D systems), and/or human activin A (R&D systems) at the doses described. Definitive endoderm differentiation—cells are treated with A-RPMI+1×L-glu+1×P/S+5 μM CHIR for 24 hours, then A-RPMI+1×Lglu+1×P/S+100 ng/mL of activin A for 2-3 days. Hepatic differentiation—cells at the definitive endoderm stage are treated with A-RPMI+1×L-glu+1×P/S+1×B27 supplement (Invitrogen)+20 ng/mL BMP-4 (R&D systems)+10 ng/mL FGF2 (Invitrogen) for 5 days, then A-RPMI+1×L-glu+1×P/S+1×B27+10 ng/mL HGF for 5 days, then HCM Hepatocyte Culture Medium (Lonza) supplemented with 20 ng/mL Oncostatin M and 10 ng/mL HGF (Peprotech) for 5 days. Pancreatic differentiation—cells at the definitive endoderm stage are treated with DMEM/F12+2% FBS (Hyclone)+50 ng/mL FGF7 (R&D systems) for 2 days, then high-glucose DMEM (Mediatech)+1% B27+2 μM retinoic acid (Sigma)+0.25 μM KAAD cyclopamine (EMD Millipore)+100 ng/mL recombinant human Noggin (R&D systems) for 4 days, then high-glucose DMEM+1% B27+100 ng/mL Noggin+300 nM indolactam V (Stemgent)+1 μM ALK5 inhibitor II (Axxora) for 4 days. Anterior foregut endoderm differentiation—cells at the definitive endoderm stage are treated with DMEM/F12+1×L-glu+1×B27+200 ng/mL Noggin+10 μM SB431542 (Stemgent) for 3 days. For hindgut endoderm differentiation, cells at the definitive endoderm stage were treated with A-RPMI+1×L-glu+1×P/S+2% FBS+500 ng/mL FGF4 (R&D systems)+5 μM CHIR for 4 days. […]
Nuclei can be counterstained with DAPI (Sigma). […] Immunofluorescence is visualized using an inverted fluorescence microscope (Nikon Eclipse Ti, Tokyo, Japan). Quantification is performed by counting a minimum of five random fields at 10× magnification. […]

[2] = tested on: human pluripotent stem cells (hPSCs); test: Mesendoderm induction: BRACHYURY immunofluorescence in hPSCs; type: cell-based; conditions: WNT3A alone 500 ng/mL, 24 hours of treatment
Procedure: For differentiation experiments, hESCs or hiPSCs can be grown on Geltrex, washed once with PBS and dissociated into single cells with Accutase ([…] Technologies). Cells are plated at a density of 4×10^4 cells/cm^2 onto Geltrex-coated plates in mTeSR1 medium supplemented with the ROCK inhibitor Y27632 10 μM (Stemgent). Cells are fed daily with mTeSR1 without Y27632 for 2-3 days until they reached 50% confluency. Mesendoderm differentiation-the media is changed to Advanced RPMI (A-RPMI, Invitrogen) supplemented with 1×L-glutamax and 1× penicillin/streptomycin and either CHIR99021 (CHIR, Stemgent), human Wnt3a (R&D systems), and/or human activin A (R&D systems) at the doses described. Definitive endoderm differentiation-cells are treated with […] for 24 hours, then […]+100 ng/mL of activin A for 2-3 days. Hepatic differentiation-cells at the definitive endoderm stage are treated with […]27 supplement (Invitrogen)+20 ng/mL BMP-4 (R&D systems)+10 ng/mL FGF2 (Invitrogen) for 5 days, then […]27+10 ng/mL HGF for 5 days, then HCM Hepatocyte Culture Medium (Lonza) supplemented with 20 ng/mL Oncostatin M and 10 ng/mL HGF (Peprotech) for 5 days. Pancreatic differentiation-cells at the definitive endoderm stage are treated with DMEM/F12+2% FBS (Hyclone)+50 ng/mL FGF7 (R&D systems) for 2 days, then high-glucose DMEM (Mediatech)+1% B27+2 μM retinoic acid (Sigma)+0.25 μM KAAD cyclopamine (EMD Millipore)+100 ng/mL recombinant human Noggin (R&D systems) for 4 days, then high-glucose DMEM+1% B27+100 ng/mL Noggin+300 nM indolactam V (Stemgent)+1 μM ALK5 inhibitor II (Axxora) for 4 days. Anterior foregut endoderm differentiation-cells at the definitive endoderm stage are treated with DMEM/F12+1×L-glu+1×B27+200 ng/mL Noggin+10 μM SB431542 (Stemgent) for 3 days. […] Immunofluorescence is visualized using an inverted fluorescence microscope (Nikon Eclipse Ti, Tokyo, Japan). Quantification is performed by counting a minimum of five random fields at 10× magnification. […]

## FGF2: fibroblast growth factor-2
CHIR-induced hPSCs; CHIR 24 hours then FGF2 100 ng/mL
  cells positive for PAX2 by immunostaining: 50-60%
CHIR-induced hPSCs; FGF2 added to hPSCs not initially induced with CHIR
  PAX2 expression: absence of PAX2 expression

B1: BMP-4: candidate growth factor screened for PAX2 induction (protein, UniProt P12644 293-408, looked up)
Bone morphogenetic protein 4: SPKHHSQRARKKNKNCRRHSLYVDFSDVGWNDWIVAPPGYQAFYCHGDCPFPLADHLNSTNHAIVQTLVNSVNSSIPKACCVPTELSAISMLYLDEYDKVVLKNYQEMVVEGCGCR
CHIR-induced hPSCs; CHIR 24 hours then increasing doses of factor
  PAX2 expression: no PAX2 expression

B2: BMP-7: candidate growth factor screened for PAX2 induction (protein, UniProt P18075 293-431, looked up)
Bone morphogenetic protein 7: STGSKQRSQNRSKTPKNQEALRMANVAENSSSDQRQACKKHELYVSFRDLGWQDWIIAPEGYAAYYCEGECAFPLNSYMNATNHAIVQTLVHFINPETVPKPCCAPTQLNAISVLYFDDSSNVILKKYRNMVVRACGCH
CHIR-induced hPSCs; CHIR 24 hours then low doses of factor
  PAX2 expression compared to vehicle control: modest increases
[1]
  expression of LHX1: minimal effect
  percentage of cells expressing PAX2: significantly decreased

B3: WNT3A: wingless-type MMTV integration site family, member 3A; human Wnt3a (R&D systems) (protein, UniProt P56704 19-352, looked up)
Protein Wnt-3a: SYPIWWSLAVGPQYSSLGSQPILCASIPGLVPKQLRFCRNYVEIMPSVAEGIKIGIQECQHQFRGRRWNCTTVHDSLAIFGPVLDKATRESAFVHAIASAGVAFAVTRSCAEGTAAICGCSSRHQGSPGKGWKWGGCSEDIEFGGMVSREFADARENRPDARSAMNRHNNEAGRQAIASHMHLKCKCHGLSGSCEVKTCWWSQPDFRAIGDFLKDKYDSASEMVVEKHRESRGWVETLRPRYTYFKVPTERDLVYYEASPNFCEPNPETGSFGTRDRTCNVSSHGIDGCDLLCCGRGHNARAERRREKCRCVFHWCCYVSCQECTRVYDVHTCK
[2]
  cells expressing BRACHY: 26.7±1.9%
